Results from the DeepSol protein solubility set.

Assay: soluble on expression in E. coli; label from the status in PepcDB or PDB records

Sequence	soluble on expression in E. coli
MSDEAIHDIFVIGGGINGCGIARDAVGRGYSVALAEMNDFASGTSSAATKLIHGGLRYLEHYEFRLVREALMEREVLWAMAPHIIWPMRFVLPFQKGGVRPAWLVRLGLFLYDHLGGRKLLPATRSLDLRRDPAGKPLKPIFARAFEYSDGWVDDARLVVLNARDAADRGAVILNRTQVVSARREGAFWRVETKNAAGESKTYRARMLVNAAGPWVDKVLAATFGKNNVHNVRLVQGSHIIVRKKFADPRAYFFQNPDGRIIFAIPYEQDFTLIGTTDRDYTADPRAVKISDEEISYLCNAASEYFAEPVKPADIVWTYSGVRPLFDDGASKAQEATRDYVLKTEGAEGEAPLLNIFGGKLTTYRRLAEHALEKIGDALGEKGTPWTAGSHLPGGNFGAEAYAEEVKALRSRYPFLDRRHAERLVRCYGTDAVAIIGAAADTTALGRHFGGTLYEAEVRWLMAREWALTAEDILWRRTKQGLFLTPEEVLGLTDYIDDIAGGRLKAILEHHHHHH	soluble
MQVLRLMALPLFALSLSVSITGCDQKNDTLQGKQNNMTAFIKKIAASKESEETQRYVGNLNGIEIKLTYYYKGDIVLRQISEHKLLYKTLKANNKEEAQKMLSQVGEAYQGMPGLTERIDYYDSYATEYVDINFTQAKISDLCKLPGSSIDNCSAYYLSMIRSQKLLEESGYHRIN	not soluble
GFIDTHLHVESSLVTPFEFDRCVTPRGITTAICDPHEIANVCGLEGIRYFLEASAHLVMDLRVQLSSCVPSTHMETAGAALEAKDLAPLMDHPRVIGLAEFMNFPGVLMKDPGCMAKLEAFRGRHIDGHAPLLRGKDLNGYIAAGIRTEHEATTAEEALEKLRKGMRVLIREGSVSKDLHALVSILTERHAPYLCLCTDDRNPLDIAEHGHIDHMIRTAIRLGAPPLAVYRAASLSAADAFGLKDRGLIAPGRRADIAVLD	not soluble
MEIKMAKDYGFCFGVKRAIQIAEKNQNSLIFGSLIHNAKEINRLEKNFNVKIEEDPKKIPKNKSVIIRTHGIPKQDLEYLKNKGVKITDATCPYVIKPQQIVESMSKEGYQIVLFGDINHPEVKGVISYATNQALVVNSLEELQEKKLQRKVALVSQTTKQTPKLLQIASYLVERCTEVRIFNTICNATSYNQKAALDLSKEVDIMIVVGGKTSSNTKQLLSIAKQHCKDSYLVEDENELELAWFKDKKLCGITAGASTPDWIIENVKQKISTILEHHHHHH	not soluble
TQPPQPDAQSPYSKRYDPTKDYPLSSPAGGMNNFSDVEPRGRLDEKAATDRADALAKNAQRNIEQKGIDSPEQYGRNYKQGTPFGERVKNLGEDIGSSANELGEGVVKGTQRGIENLKGNTQNAAEDATKNVQRGAEDAGRNVRRTADDAGNAVKRAVD	not soluble
MRLRNKPWAKDKIAAYPQYVIPDPETKRGRWRELFGRDRPIHVEIGTGKGKFITEMAKLHPDVNFIGIELYPSVLVSALDKLIESGLANVKLLNANAKDLTAFFADGEVSRIYLNFSDPWPKKRHEKRRLTYRDFLALYDRILAEDGDIHLKTDNQSFFEYSLVSLSQYGFVLASVQLDLHQSGMTDNVMTEYEEKFSSKGNRIYPMRGGAPAAAVVIGPNRLVGSFSISD	not soluble
LEILRKNRINEPCIKLNTHSIANKIYATENYIIGIPTDHPDEISDAFTKSVAALLAKSNGIRTPELICFDDSYTIKALDKKLHKIGKAEDGACNLILDMLRLLRLAKDLF	not soluble
MDGAQPKTNFFERLIARLAREPDSAEDVLNLLRQAHEQEVFDADTLLRLEKVLDFSDLEVRDAMITRSRMNVLKENDSIERITAYVIDTAHSRFPVIGEDKDEVLGILHAKDLLKYMFNPEQFHLKSILRPAVFVPEGKSLTALLKEFREQRNHMAIVIDEYGGTSGLVTFEDIIEQIVGEIEDEFDEDDSADNIHAVSSERWRIHAATEIEDINTFFGTEYSSEEADTIGGLVIQELGHLPVRGEKVLIGGLQFTVARADNRRLHTLMATRVK	not soluble
AIAASALEQFVNNVRQLSAQGQMTQLCELINKSGELLAKNLSHLDTVLGALDIQEHSLGVLAVLFVKFSMPNIPDFETLFSQVQLFISTCNGEHIRYATDTFAGLCHQLTNALVERKQPLRGISILKQAIDKMQMNTNQLTSVHADLCQLCLLAKCFKPAVPFLELDMMDICKENGAYDAKHFLCYYYYGGMIYTGLKNFERALYFFEQAITTPAMAVSHIMLEAYKKYILVSLILHGKVQQLPKYTSQIVGRFIKPLSNAYHELAQIYATNNPAELRALVNKHSETFTRDNNSGLVKQCLSSLYKKNIQRLTKTFLTLSLQDMASRVQLSGPQEAEKYVLHMIEDGEIYASINQKDGMVCFHDNPEKYNNPAMLHKIDQEML	soluble
MAQHVKFHQYFFQWMQLYKLDAVRPVTYRKYEMSHRQLVTLAPDLKMADLSRLTYQQLLNDYAETHERQTTMDFHRHLKGSLIDALEEGFIDRDPTRKAIIKGIKHRQHKLEHHHHHH	soluble
MTKKYDLHCHSTASDGVLSPTELVHRAYAQGVNVLALCDHDTIAGIDEAEIAAKEVGIELITGVEISTNWEGRGIHIVGLNFDKTHPKMTALLQSQKALREKRAVEIGDKLEKAGIPNAYDGAKALADGEVTRAHYARYLVQIGKVSNDGQAFKRYLGQGKSAFVKAEWADIPTAIETIHAAGGIAIIAHPLRYNMTGKWVRKLIVDFKAWGGDGMEMADCGQTKDQRQMLARWAKEFDLQGSVGSDFHFPCGWIELGKNLDLVDSVIPVWEKFLEHHHHHH	soluble
MGSDKIHHHHHHDYKLVIFASFNGKAYSDNPRYLFEYLRDHEEFASYHFVWAFKVKRSVNRAKVVKFNSFSYYYLLSKAKYWVFNSKMAPYYHKKGEQVYLQTWHGTPLKRLGHDILDNGITYYRSRLSYQQMLRSYDEDSRHWDYLISPNPFSSQAFTSAFNLDRGKLLEVGYPRVDFLVNADSNKCMELKRRYGLPLDKKVVLYAPTWRDDSFGIRGYRFELAVDFYKWKNQLGDDTVILFKPHYLISNVYQIPNDLSNFVYLMAASADINDAYLMSDVLITDYSSVFFDYANLNRPIYFYMYDFEQYEQELRGFYLNVPDELPNDVIRTEKELLRRIKEDIFDYDRLQVFNQVFNSWNDGKVSSKVAKRIFYEN	not soluble
MEMKGINNIRIDDRLIHGQVATMWSNKLGVTRLMVVNDNVAKNDLQKQVLRMAVPAGISSSIITEETAISNIKNGKYEGQNVLMIVKSPVDLLPFIENDLEIKRINVGNMSNRNNTTVLRPNISVTDEERSAFEKLLSRDIEITTIMTPDDKKTFLKDIL	not soluble
MSLSDKIRIGMTVSSTGSFVLASQSGVRGVEVWVDDVNRRGGIEIKGKKYPVELVKLDDRSDKQMVTRVYERLIVDEKVDLVFAPFGSTLTAAAGTVTERLGKYMMVWSAASDDLYKQGFKYMVSGTQMPVSAMLRAPMALAGKLGVKKAAILYSDEPFPAGLADGGRAQAAKNGIDVVLYEKYPKGQKDFSTLLQKAKAAGADALVPTSYEGDLISMTRQMKQLDINFPYTFMVYASTPQFQAIGADSNYIFSHTNYHPAINWKVNAGLTREQFGKAYDTLFPKAEFPPDFQTALAYGAGALTEEIIKKAGATDAAALKQASMDLSDKVTVMAGPYAIDETGKQLQMPFPVVQLLPGKGMVPVYPEDVAVEKAVYPAPAWNKAKGIITITTDPNSSSVDKLAAALEHHHHHH	soluble
MGSDKIHHHHHHMPLKRLNRFRLWLWETPPVYEIRGRCFQIKERLCGYPELHRAFRERTGYELSLHHPCTFHHKITVLKIRRSPRIFVRAVDKIFAKELALEWAHQHGFRLYVARTLAVTKDVSEIRWHELPQRFLIKATHRSGANLFVDQSQAFDLDALRVQSRAWLQYPYGVYKHEWAYWPVPRRLLIEELIEPVDGEELVDYKFHMSRGRCLMIQVNQGLRSGKRTIAILHPSWQLQPVKWVYPQPEVIPQRPDTFYEMLEMASAFSREFPYLRVDLYSVKQVMSGVMVSRVMFGEFTFFPGSGSESVDPFAFDLAIGKEIKL	not soluble
MRPPLIERYRNLLPVSEKTPVISLLEGSTPLIPLKGPEEARKKGIRLYAKYEGLNPTGSFKDRGMTLAVSKAVEGGAQAVACASTGNTAASAAAYAARAGILAIVVLPAGYVALGKVAQSLVHGARIVQVEGNFDDALRLTQKLTEAFPVALVNSVNPHRLEGQKTLAFEVVDELGDAPHYHALPVGNAGNITAHWMGYKAYHALGKAKRLPRMLGFQAAGAAPLVLGRPVERPETLATAIRIGNPASWQGAVRAKEESGGVIEAVTDEEILFAYRYLAREEGIFCEPASAAAMAGVFKLLREGRLEPESTVVLTLTGHGLKDPATAERVAELPPPVPARLEAVAAAAGLL	soluble
MSLKEESLLEYYAQDSFYAEYSSGTGYEIQERALRSTFSRYMKELHKRNVTGGKLLEIGCGFGFLLDEAKNYFDYRIGTDFSSEAVSHAKKYADNVYCGGLEAIPSDTSTKFDCVITFSVLEHVYNPNTFIQEIQNYMAPNGSLVVSTPFIGGMWYKILGKKWSFFIPPEHVCLYNHNSISQLLKQNGFKNIEMFISSHAWPVAGFLSKMGMRKLSSMTLKLKIGDVPLFVPFTIINIIGSKEGHHHHHH	not soluble
MGSDKIHHHHHHMKTLGERSKERRKIINLTQLQLSKKVGVSSVTISQWESGDTSPKGENLYKLAQALQCSPDWLMFGDSKNTKKPESNAEWAGGFDLWDNDSPLGEDEVEIPFYMDVELSAGEGIAEGVEYKGPKLRFAKSSLKRQGVNTDHAACVKVNGNSMEPVLPHGSTVGVDTSATEIVDGKMYAINHDGMMRVKMLYKLPGGGLRLRSYNTDEWPDEHINNEQLKNIKVIGKVFWYSVLL	not soluble
MAPVIRRAKEIDLYCLNSLMYKLHDEHHQQCPDLFKTASEIEEEKSIARYLDDPECMVYVAEMDDVIIGFITGHFCELISTVSKLVMMATIDELYIEKEYRREGVAEQLMMRIEQELKDYGVKEIFVEVWDFNKGALEFYNKQGLNEHIHYLRKPLNRLEHHHHHH	soluble
MALSKFNLFIGDILFNTLTGYAIKLESWEIEKLRKGVVPEHLKDIIEEGFSATDEDLDEEIEKFLRKPVLEPTLVLTYNCNFDCIYCFQKGFRKNISVSDKVTRGFVNYIRKNEKGRKVRVTYFGGEPILQLRKIEEISRELSDLKYSFSVVTNGSLLTRKIVERLIPLGLTHVQITLDGPKEVHDKRRFFVSGEGTFDVIVKNLKEIQDMVKVVLRINIDVKNLNEIGELLNELKMEGINRVRLDPHLVHSNVFRNEWWDFTISSKAEGDVMVKFWEIARKYGFEVPQDVLRLGLCVAYSSEDIVVDPEGNIYPCWAFTGNPLYVKGKLEEDGSVKVTNKSLWWKVKIEDKCRECPFLPLCMGGCKFLATINGDDCKREAYEKIVRSIRWVMG	not soluble
MGHHHHHHSHMKPNVGQGSTSVQTAMESELGESSATINKRLCKSTIELSENSLLPASSMLTGTQSLLQPHLERVAIDALQLCCLLLPPPNRRKLQLLMRMISRMSQNVDMPKLHDAMGTRSLMIHTFSRCVLCCAEEVDLDELLAGRLVSFLMDHHQEILQVPSYLQTAVEKHLDYLKKGHIENPGDGLFAPLPTYPYCKQISAQEFDEQKVSTSQAAIAELLENIIKNRSLPLKEKRKKLKQFQKEYPLIYQKRFPTTESEAALFGDKPTIKQPMLILRKPKFRSLR	not soluble
